Results on 4 molecules are retold here after PMC6451107, “Structural insights reveal the specific recognition of roX RNA by the dsRNA-binding domains of the RNA helicase MLE and its indispensable role in dosage compensation in Drosophila”.

Numbering of substitutions follows the chain as printed. Numbers in names are those of the source.

What all share (assay): fluorescence polarization; FP: 80 nM 3'-FAM RNA stock mixed 1:1 with protein, buffer D (composition not in material), 15 min, 20 C; EMSA: 1200 nM RNA stock mixed 1:1 with protein, buffer
For orientation: In fluorescence polarisation assays a small probe gives low polarisation when free and higher when bound to something large.

Data set [1] has as its target MLE dsRBD1+2 N223A/K224A/K225A (Drosophila, UniProt P24785 1-264, N223A;K224A;K225A). To be noted: protein: recombinant; tags: SUMO tag removed by ULP1; label: 3'-FAM; hairpin, 13 nt loop (C135-C147).
A further data set addresses MLE dsRBD1+2 H196A (Drosophila, UniProt P24785 1-264, H196A). To be noted: protein: recombinant; tags: SUMO tag removed by ULP1; label: 3'-FAM; hairpin, 13 nt loop (C135-C147).
The target in another data set is MLE dsRBD1+2 K171A (Drosophila, UniProt P24785 1-264, K171A). To be noted: protein: recombinant; tags: SUMO tag removed by ULP1; label: 3'-FAM; hairpin, 13 nt loop (C135-C147).
In the next data set the target is MLE dsRBD1+2 K4E/S5A (Drosophila, UniProt P24785 1-264, K4E;S5A). To be noted: protein: recombinant; tags: SUMO tag removed by ULP1; label: 3'-FAM; hairpin, 13 nt loop (C135-C147).
A further data set has as its target MLE dsRBD1+2 S5A (Drosophila, UniProt P24785 1-264, S5A). The conditions noted are these: protein: recombinant; tags: SUMO tag removed by ULP1; label: 3'-FAM; hairpin, 13 nt loop (C135-C147).
The target of a further data set is MLE dsRBD1+2 K229A (Drosophila, UniProt P24785 1-264, K229A). To be noted: protein: recombinant; tags: SUMO tag removed by ULP1; label: 3'-FAM; hairpin, 13 nt loop (C135-C147).
The target in data set [2] is MLE dsRBD1+2 N52A/K53E/K54E/K58E (Drosophila, UniProt P24785 1-264, N52A;K53E;K54E;K58E). To be noted: protein: recombinant; tags: SUMO tag removed by ULP1; label: 3'-FAM; hairpin, 13 nt loop (C135-C147).
The target of the next data set is MLE dsRBD1+2 K171E (Drosophila, UniProt P24785 1-264, K171E). To be noted: protein: recombinant; tags: SUMO tag removed by ULP1; label: 3'-FAM; hairpin, 13 nt loop (C135-C147).
The target of data set [3] is MLE dsRBD1+2 N223A/K224E/K225E/K229E (Drosophila, UniProt P24785 1-264, N223A;K224E;K225E;K229E). The conditions noted are these: protein: recombinant; tags: SUMO tag removed by ULP1; label: 3'-FAM; hairpin, 13 nt loop (C135-C147).
The next data set concerns the target MLE dsRBD1+2 K4A (Drosophila, UniProt P24785 1-264, K4A). The conditions noted are these: protein: recombinant; tags: SUMO tag removed by ULP1; label: 3'-FAM; hairpin, 13 nt loop (C135-C147).
Data set [4] has as its target MLE dsRBD1+2 N52A/K53A/K54A (Drosophila, UniProt P24785 1-264, N52A;K53A;K54A). The conditions noted are these: protein: recombinant; tags: SUMO tag removed by ULP1; label: 3'-FAM; hairpin, 13 nt loop (C135-C147).
The target of a further data set is MLE dsRBD1+2 K4E (Drosophila, UniProt P24785 1-264, K4E). To be noted: protein: recombinant; tags: SUMO tag removed by ULP1; label: 3'-FAM; hairpin, 13 nt loop (C135-C147).
The next data set concerns the target MLE dsRBD1+2 K4A/S5A (Drosophila, UniProt P24785 1-264, K4A;S5A). The conditions noted are these: protein: recombinant; tags: SUMO tag removed by ULP1; label: 3'-FAM; hairpin, 13 nt loop (C135-C147).
For a further data set, the target named is MLE dsRBD1+2 H196E (Drosophila, UniProt P24785 1-264, H196E). To be noted: protein: recombinant; tags: SUMO tag removed by ULP1; label: 3'-FAM; hairpin, 13 nt loop (C135-C147).
Another data set addresses MLE dsRBD1+2 K171E/N175A (Drosophila, UniProt P24785 1-264, K171E;N175A). To be noted: protein: recombinant; tags: SUMO tag removed by ULP1; label: 3'-FAM; hairpin, 13 nt loop (C135-C147).
Another data set has as its target MLE dsRBD1+2 N175A (Drosophila, UniProt P24785 1-264, N175A). To be noted: protein: recombinant; tags: SUMO tag removed by ULP1; label: 3'-FAM; hairpin, 13 nt loop (C135-C147).
In another data set the target is MLE dsRBD1+2 WT (Drosophila, UniProt P24785 1-264). The conditions noted are these: protein: recombinant, tags: SUMO tag (N-terminal, with Ni-NTA purification) removed by ULP1, label: 3'-FAM, hairpin.
In the next data set the target is MLE dsRBD1+2 E195A (Drosophila, UniProt P24785 1-264, E195A). The conditions noted are these: protein: recombinant; tags: SUMO tag removed by ULP1; label: 3'-FAM; hairpin, 13 nt loop (C135-C147).
In the next data set the target is MLE dsRBD1+2 K58A (Drosophila, UniProt P24785 1-264, K58A). To be noted: protein: recombinant; tags: SUMO tag removed by ULP1; label: 3'-FAM; hairpin, 13 nt loop (C135-C147).
A further data set has as its target MLE dsRBD1+2 E172A (Drosophila, UniProt P24785 1-264, E172A). The conditions noted are these: protein: recombinant; tags: SUMO tag removed by ULP1; label: 3'-FAM; hairpin, 13 nt loop (C135-C147).
The target of another data set is MLE dsRBD1+2 N29A (Drosophila, UniProt P24785 1-264, N29A). To be noted: protein: recombinant; tags: SUMO tag removed by ULP1; label: 3'-FAM; hairpin, 13 nt loop (C135-C147).
For a further data set, the target named is MLE dsRBD2 (Drosophila, UniProt P24785 152-264). To be noted: protein: recombinant; tags: SUMO tag removed by ULP1; label: 3'-FAM; hairpin, 13 nt loop (C135-C147).
In the next data set the target is MLE dsRBD1 (Drosophila, UniProt P24785 1-87). The conditions noted are these: protein: recombinant; tags: SUMO tag removed by ULP1; label: 3'-FAM; hairpin, 13 nt loop (C135-C147).

B1: R2H1 55mer (FAM) (structured_RNA)
RNA: GCUUUAGAGAUCGUUUCGAAUCACAUUGAUAAUCGUUCGAAACGUUCUCCGAAGC
Usually Kd stands for a measure of binding affinity in units of concentration. As for B1, the Kd in [1] was found to be 18.9 ± 1.45 µM; in the data set with MLE dsRBD1+2 H196A, 3.02 ± 0.2 µM; in the data set with MLE dsRBD1+2 K171A it was 4.58 ± 0.68 µM; with MLE dsRBD1+2 K4E/S5A, 8.05 ± 0.34 µM; with MLE dsRBD1+2 S5A, 1.8 ± 0.24 µM; with MLE dsRBD1+2 K229A, 0.88 ± 0.18 µM. For the same molecule, the Kd in data set [2] is 12.5 ± 1.51 µM; with MLE dsRBD1+2 K171E it was 8.21 ± 0.26 µM; in data set [3] it was 60.1 ± 6.55 µM; in the data set with MLE dsRBD1+2 K4A, 4.18 ± 0.27 µM; in data set [4] it was 7.7 ± 0.36 µM; in the data set with MLE dsRBD1+2 K4E it was 6.55 ± 0.56 µM. The Kd amounted to 4.49 ± 0.54 µM with MLE dsRBD1+2 K4A/S5A; 7.24 ± 0.65 µM in the data set with MLE dsRBD1+2 H196E; 10.3 ± 1.14 µM with MLE dsRBD1+2 K171E/N175A; 1.31 ± 0.26 µM with MLE dsRBD1+2 N175A; 0.2 ± 0.03 µM in the data set with MLE dsRBD1+2 WT (13 nt loop (C135-C147)); 0.15 ± 0.03 µM with MLE dsRBD1+2 E195A. Moreover, the Kd stood at 2.38 ± 0.13 µM with MLE dsRBD1+2 K58A, 0.18 ± 0.04 µM with MLE dsRBD1+2 E172A and 0.43 ± 0.07 µM with MLE dsRBD1+2 N29A. Also, the values for the binding signal with MLE dsRBD2 and with MLE dsRBD1 were about 4.5 fold weaker than dsRBD1+2 and about 44 fold weaker than dsRBD1+2, respectively.

B2: R2H1 U134C/C135G (structured_RNA)
RNA: B1 RNA with U21C, C22G
B2: the Kd with MLE dsRBD1+2 WT stood at 0.43 ± 0.05 µM.

B3: R2H1 U124A (structured_RNA)
RNA: B1 RNA with U11A
Take B3: the Kd in the data set with MLE dsRBD1+2 WT was 1.03 ± 0.12 µM.

B4: R2H1 U118C/A119G (structured_RNA)
RNA: B1 RNA with U5C, A6G
For B4, the Kd with MLE dsRBD1+2 WT was 0.42 ± 0.06 µM.
